How the values were obtained:
Experiment in all cases: cell-based or functional assay
[1] = biological target: HIV-1 Env pseudovirus 211-9 (HIV-1)
[2] = biological target: HIV-1 Env pseudovirus 3301.v1.c24 (HIV-1)
[3] = biological target: HIV-1 Env pseudovirus 6480.v4.c25 (HIV-1)
[4] = biological target: HIV-1 Env pseudovirus 6545.v4.c1 (HIV-1)
[5] = biological target: HIV-1 Env pseudovirus 6952.v1.c20 (HIV-1)
[6] = biological target: HIV-1 Env pseudovirus BJOX025000.01.1 (HIV-1)
[7] = biological target: HIV-1 Env pseudovirus BJOX028000.10.3 (HIV-1)
[8] = biological target: HIV-1 Env pseudovirus T250-4 (HIV-1)

Row | Substance | IC50 (Titer in TZM.bl cells) [1] [µg/mL] | IC80 (Titer in TZM.bl cells) [1] [µg/mL] | IC50 (Titer in TZM.bl cells) [2] [µg/mL] | IC80 (Titer in TZM.bl cells) [2] [µg/mL] | IC50 (Titer in TZM.bl cells) [3] [µg/mL] | IC80 (Titer in TZM.bl cells) [3] [µg/mL] | IC50 (Titer in TZM.bl cells) [4] [µg/mL] | IC80 (Titer in TZM.bl cells) [4] [µg/mL] | IC50 (Titer in TZM.bl cells) [5] [µg/mL] | IC80 (Titer in TZM.bl cells) [5] [µg/mL] | IC50 (Titer in TZM.bl cells) [6] [µg/mL] | IC80 (Titer in TZM.bl cells) [6] [µg/mL] | IC50 (Titer in TZM.bl cells) [7] [µg/mL] | IC80 (Titer in TZM.bl cells) [7] [µg/mL] | IC50 (Titer in TZM.bl cells) [8] [µg/mL] | IC80 (Titer in TZM.bl cells) [8] [µg/mL]
1 | 3BNC117 (antibody) | 0.35 | 1.28 | 0.01 | 0.05 | 0.01 | 0.04 | > 50 | > 50 | 0.15 | 0.75 | 0.05 | 0.2 | 0.01 | 0.05 | > 15 | > 15
2 | VRC07 (antibody) | 5.92 | 38 | 0.027 | 0.073 | 0.032 | 0.134 | > 50 | > 50 | 0.064 | 0.181 | 0.279 | 2.29 | 0.011 | 0.069 | > 50 | > 50
3 | 8ANC195 (antibody) | 1.34 | 8.43 | > 50 | > 50 | 0.16 | 1.13 | 26.9 | > 50 | 1.38 | 7.22 | 4.96 | > 50 | 0.45 | 2.83 | > 50 | > 50

— patent US20240117018A1
